Experiments:
Assay in all cases: SEC; gel filtration on Superdex 200 (AKTA-FPLC) followed by SDS-PAGE; P proteins released from GST by thrombin; P particles form a peak at ~830 kDa and the P dimer at ~69 kDa
[1] = molecular target: VA207 (GII-9) norovirus P domain with C-terminal … peptide, wild type (P particle / P dimer) (norovirus strain VA207 (GII-9))
[2] = molecular target: Norwalk virus (GI-1) P domain with N-terminal CNGRC peptide, wild type (P particle / P dimer) (Norwalk virus (GI-1))
[3] = molecular target: MOH (GII-5) norovirus P domain with C-terminal … peptide, wild type (P particle / P dimer) (norovirus strain MOH (GII-5))
[4] = molecular target: Boxer (GI-8) norovirus P domain with C-terminal … peptide, wild type (P particle / P dimer) (norovirus strain Boxer (GI-8))

“VA207 (GII-9) norovirus P domain with C-terminal … peptide, wild type (P particle / P dimer) (domain or fragment)” was tested, and the efficiency of P particle formation [1] was 90%.
For “Norwalk virus (GI-1) P domain with N-terminal CNGRC peptide, wild type (P particle / P dimer) (domain or fragment)”, the efficiency of P particle formation [2] was 70%.
“MOH (GII-5) norovirus P domain with C-terminal … peptide, wild type (P particle / P dimer) (domain or fragment)” showed an efficiency of P particle formation [3] of 80%.
“Boxer (GI-8) norovirus P domain with C-terminal … peptide, wild type (P particle / P dimer) (domain or fragment)” showed an efficiency of P particle formation [4] of 80%.

From publication PMC2660415
